According to patent US20220275059A1 (HARBOUR ANTIBODIES, published 2022):
Where a chain is given by its changes, count along the chain named.

B1: 7.3a9 (antibody, V domains shown)
VH: QVQLVESGGGVVQPGRSLRLSCAASGFNFSSDGMHWVRQAPGKGLEWVAVIWYDGRNKYYADSVKGRFTISRDNTKNTLYLQMNSLRAEDTAVYYCARDRGITMGRGPYYYYYGMDVWGQGTTVTVSS
VL: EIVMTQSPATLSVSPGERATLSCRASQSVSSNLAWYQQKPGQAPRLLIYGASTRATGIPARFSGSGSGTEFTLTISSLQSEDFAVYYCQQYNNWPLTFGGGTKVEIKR
B2: 7.6c11 (antibody, V domains shown)
VH: B1 VH with N28T, R56S, N57S, K58E, A61G, T75S, P108V
VL: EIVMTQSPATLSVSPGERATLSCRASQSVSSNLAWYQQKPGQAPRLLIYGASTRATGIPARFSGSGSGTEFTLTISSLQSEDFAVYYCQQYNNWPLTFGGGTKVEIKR
B3: 7.9c10 (antibody, V domains shown)
VH: QVQLVESGGDVVQPGRSLRLSCAASGITFSNYGMHWVRQAPGKGLEWVAVIWYDGSNKYYADSVKGRFTISRDNSKNTLYLQMNSLRAEDTAVYYCARDRGMTGTTWEYYYYYGMDVWGQGTTVTVSS
VL: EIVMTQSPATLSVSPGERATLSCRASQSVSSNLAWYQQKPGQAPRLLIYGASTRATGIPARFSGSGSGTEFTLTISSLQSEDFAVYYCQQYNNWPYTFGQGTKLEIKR
B4: 7.5d3 (antibody, V domains shown)
VH: QVQLVESGGGVVQPGRSLRLSCAATGFTFSYYGMHWVRQAPGKGLEWVAVIWFDGTNIYYADSVRGRFTISRDNSKNTLYLQMNSLRAEDSAVYYCARDRRSSDWYVVFDYWGQGTLVTVSS
VL: DIQLTQSPSFLSASVGDRVTITCRASQGISSYLAWYQQKPGKAPKLLIYAASTLQSGVPSRFSGSGSGTEFTLTISSLQPEDFATYYCQQLNSYPWTFGQGTKVEIKR
B5: 1.6c2 (antibody, V domains shown)
VH: QVQLVQSGTEVKKPGSSVKVSCKASGGAFSAYAITWVRQAPGQGLEWMGGIIPIFGTAHYAQKFQGRVTITADKSTSTAFMELSSLRSEDTAVYYCAREGDIEVVLAGRGYFDYWGQGTLVTVSS
VL: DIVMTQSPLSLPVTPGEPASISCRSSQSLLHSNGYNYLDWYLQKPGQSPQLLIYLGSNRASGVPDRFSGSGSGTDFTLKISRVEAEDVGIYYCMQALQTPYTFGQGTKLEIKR
B6: 7.7h8 (antibody, V domains shown)
VH: QVQLVESGGGVVQTGRSLRLSCAASGFTFSAYAMHWVRQAPGKGLEWVTFIGYEESNKYHADSVKGRFTISRDNSKNTLYLQMNSLRAEDTAVYYCARDRGISVAATWDYYYYYGMDVWGQGTTVTVSS
VL: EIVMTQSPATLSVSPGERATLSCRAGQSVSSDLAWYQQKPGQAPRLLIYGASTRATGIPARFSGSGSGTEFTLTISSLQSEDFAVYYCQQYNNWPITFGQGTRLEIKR
B7: 4.2c3 (antibody, V domains shown)
VH: QVQLVESGGGVVQPGRSLRLSCTASGFTFSGYGMHWVRQAPGKGLEWVAIIWYDGSNTYYADSAKGRFTISRDNSKNTLYLQMNSLRVEDTAVYYCARDRGISVAALWKYYYYHGLDVWGQGTTVTVSS
VL: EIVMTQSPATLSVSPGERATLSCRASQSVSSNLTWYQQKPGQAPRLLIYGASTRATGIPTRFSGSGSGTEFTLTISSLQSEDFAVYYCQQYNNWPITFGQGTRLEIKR
B8: 4.7a6 (antibody, V domains shown)
VH: B7 VH with G33A, G42V, T58K, A64V, V88A, V104E, L107K, H114Y, L116M
VL: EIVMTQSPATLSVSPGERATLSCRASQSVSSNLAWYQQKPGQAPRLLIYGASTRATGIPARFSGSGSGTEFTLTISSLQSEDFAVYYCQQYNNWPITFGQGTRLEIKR
B9: 4.9f12 (antibody, V domains shown)
VH: B7 VH with R16M, G33A, G42V, T58K, A64V, V88A, V104E, L107K, H114Y, L116M
VL: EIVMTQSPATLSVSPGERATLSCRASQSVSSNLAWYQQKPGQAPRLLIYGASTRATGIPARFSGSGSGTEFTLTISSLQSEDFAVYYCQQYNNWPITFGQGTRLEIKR
B10: 7.7f3 (antibody, V domains shown)
VH: B7 VH with A61T, N77D, V125T
VL: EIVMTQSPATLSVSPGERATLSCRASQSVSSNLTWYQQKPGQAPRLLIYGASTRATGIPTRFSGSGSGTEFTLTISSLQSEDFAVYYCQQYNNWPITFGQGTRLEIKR
B11: 1.3h2 (antibody, V domains shown)
VH: QVQLVESGGGVVQPGRSLRLSCAASGFTFSRYGMHWVRQAPGKGLQWVAFIWYDGSNKYYADAVKVRFTISRDNSKNTLYLQMNSLRAEDTAVYYCATEGDYYGSGSYSRAEYFQEWGQGTLVTVSS
VL: EIVMTQSPATLSVSPGERATLSCRASQSVSINLAWYQQKPGQAPRLLIYDTSARATGIPARFSGSGSGTEFTLTISSLQSEDFAVYYCQQYNNWPFTFGPGTKVDIKR
B12: 7.9g1 (antibody, V domains shown)
VH: QVQLVESGGGVVQPGRSLRLSCAASGFTFSTYAMHWVRQAPGKGLEWVAVIWYDGSNKYYADSVKGRLTISRDNSKNTLFLQMNSLRAEDTAVYYCARDRGITTTDTGYYYYYYGLDIWGQGTTVTVSS
VL: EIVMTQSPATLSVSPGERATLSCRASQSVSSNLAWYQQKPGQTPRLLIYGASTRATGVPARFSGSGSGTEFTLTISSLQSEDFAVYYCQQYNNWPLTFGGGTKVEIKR
B13: 2.9d7 (antibody, V domains shown)
VH: QRKLVESGGGVVQPGRSLRLSCAVSGLIFSNYGMHWVRQAPGKGLEWVAVIWYDGSNTYYTDSVKGRFTISRDNSKNTLYLQMNSLRAEDTAVYYCARDRGMTAPGPGTYYYFYGMDVWGQGTTVTVSS
VL: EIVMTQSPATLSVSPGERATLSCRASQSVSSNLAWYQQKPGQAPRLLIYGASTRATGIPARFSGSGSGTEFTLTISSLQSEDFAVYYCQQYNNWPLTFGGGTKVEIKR

Each binder was assayed against MERS-CoV S S1 subunit (MERS-S1) (MERS-CoV EMC isolate, UniProt K9N5Q8 19-748) (assay: ForteBio Octet kinetic measurement (FIG. 3A)).
B1 showed a Kd of roughly 0.43 nM. Binder B2 has a Kd of roughly 0.4 nM. Binder B3 has a Kd of roughly 0.11 nM. B4 was tested, and the Kd was roughly 6 nM. With B5 the Kd was roughly 0.86 nM. Binder B6 has a Kd of roughly 0.54 nM. With B7 the Kd was roughly 0.12 nM. Binder B8 has a Kd of roughly 0.13 nM. B9 was tested, and the Kd was roughly 0.13 nM. Work on B10 yielded a Kd of roughly 0.12 nM. For B11, the Kd was roughly 1.9 nM. With B12 the Kd was roughly 0.21 nM. Work on B13 yielded a Kd of roughly 0.35 nM.
